These results are taken from the RNAGym collection of RNA variant scans (doi:10.1073/pnas.2313332121).

This sample holds only a part of the variants without activity.

First the molecules themselves.
B1: TPR 5TU (parent)
chain: GGAUCUUCUCGAUCUAACAAAAAAGACAAAUCUGCCACAAAGCUUGAGAGCAUCUUCGGAUGCAGAGGCGGCAGCCUUCGGUGGCGCGAUAGCGCCAACGUUCUCAACUAUGACACGCAAAACGCGUGCUCCGUUGAAUGGAGUUUAUCAUG

This data set covers variants of B1. Description: polymerase ribozyme fitness, log enrichment relative to wild type (log ratio); higher = more active; in vitro selection for triplet polymerase activity. The method, boiled down:
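Mutant libraries were PCR-built and transcribed for each subunit of a heterodimeric triplet polymerase ribozyme and selected for one round in triplicate at −7 °C, frozen, before gel excision of extended constructs and streptavidin-bead capture. Input and output libraries were Illumina-sequenced, keeping genotypes with ≥10 input reads and ≥1 read per output. Fitness is a logarithmic ratio of genotype to wild-type enrichment, in base 2, using inverse-variance-weighted replicate averages.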
GGAUCUUCUAGAUGUAACAAAAAAGACAAAUCUGCCACAAAGCUUGAGAGCAUCUUCGGAUGCAGAGGCGGCAGCCAUCGGUGGAGCGAUAACGCCAACGUUCUCAACUGUGACACGCAAAGCGCGUGCUCCGUUGAAUGGAGUUUAUCAUG [C10A C14G U77A C85A G92A A110G A122G]: the “polymerase ribozyme fitness (log ratio)” value is at most -4.2.
GGAUCUUCUCGAUCUAACAAAAAAGACAAAUCUGCCAAAAAGCUUGAGAGCAUCUUCGGAUGGAGAGGCGGCAGCCUUCGGUGGCGCGAUAGCGCCAACGUUCUCAACUAUGACACGCAAAACGCGUGCUCCGUUGAAUGGAGUUUAUCGUG [C38A C63G A150G]: the “polymerase ribozyme fitness (log ratio)” value was -3.
Then GGAUCUUCUCGAUCUAACAAAAAAGACAAAUCUGCCACAAGGCUUGAGAGCAUCUUCGGAUGCAGAGGCGGCAGGCUUCGGUGGCGCGAUACCGCCAACGUUCUCAACUAUGACACGCAAAACGCGUGCUCCGUUGAAUGGAGUUAAUCAUG [A41G C75G G92C U146A], with at most -4.2; and GGAUCUUCUCGAUCUAGCAAAAAAGACAAAUCUGCCCCAAAGCUUGAGAGCAUCUUCGGAUGCAGAGGCGGCAGCCUUCGGUGGCGCGAUGGCGCCAAAGUUCUCAGCUAUGACACGCAAAACGCGUGCUCCGUUGAAGGGAUUUUACCAUG [A17G A37C A91G C99A A107G U139G G143U U148C], with at most -4.2; and GGAUCUUCUCGAUCUAGCAAGAAAGACAAAUCUGCCACAAAGCUUGAGAGCAUCUUUGGAUGCAGAGGCGGCAGCCUUCGGUGGCGCGAUAGCGCAAACGUUCUCAACUAUGACACGCAAAACGCGUGCUCCGUUGUGUGGAGUUUAUCAUG [A17G A21G C57U C96A A137U A138G], with at most -4.2.
Then GGAUCUUCUCGAUCUAACAAAAAAGCCAAAUCUGCCACAAAGCUUGAGAGCCACUUCGGAUGCAGAGGCGGCAGCCUUCGGUGGCGCGAUAGCGCCAACGUUCUCAACUAUGACACGCAAAACGCGUGCUCCGUUGAAUGGAGUUUAUCAUG [A26C A52C U53A], with at most -4.2.
The figure for GGAUCUUCUCGAUCUAACAAAAAAGACAAAUCUGUCACAAAGCUUGAGGGCAUCUUCGGAUGCAGAGGCAGCAGCCUUCGGUGGCGCGAUAGCGGCAACGUUCUAAACUAUGACACGCAAAACGCGUGCUCCGUUGAAUGGAGUUUAUCAUG [C35U A49G G70A C95G C105A] is at most -4.2; for GGAUCUUCUCGAUCUAACAAAAAAGACAAAUCUGCCACAAAGCUUGAGAGCAUCUACGGAUGCAGAGGCGGCAGCCUUCGGUGACGCGAUAGCGCCAACGUUCUCAACUAUGACACGCAAAACGCGGGCUCCGUUGAAUGGAGUUUAUCAUG [U56A G84A U127G] it is -3.06.
On to GGAUCUUCUCGAUCUAACAAAAAAGACCAAUCUGCCACAAAGCUUGAGAGCAUCUUCGGAUGCAGAGGCGGCAGCCUUCGGUGGGGCGAUAGCGCCAACGUUCUCCACUAUGCCACGCAAAACGCGUGCUCCGUUGAAUGGAGUUUAUCAUG [A28C C85G A106C A113C], for which the “polymerase ribozyme fitness (log ratio)” value was at most -4.2.
Then GGAUCGUCUCGAUCUAACAAAAAAGACAAAUCUGCCACAUAGCUUGAGUGCAUCUUCGGAUGCAGCGGCGGCAGCCUUCGGUGGCGCGAUAGCUCCAUCGUUCUCAACUAUGACACGCAAAACGCGUGCUCCGCUGAAUAGAGUUUAUCAUG [U6G A40U A49U A66C G94U A98U U134C G140A], with at most -4.2.
The figure for GGAUCUUCUCGAUCUAACAAAAAAGACAAAUCUGCCACAAAGCUUGAGAGCAUCUUAGGAUGCAGAGGCGGCAGCCUUCGGUGGCGCGAUAGCGCCAACGUUCUCAACUAUGACACGCAAAACGCGAGCUCCGUUGAAUGGAGUUUAUCAUG [C57A U127A] is -3.56; for GGAUCUUCUCGAUCUAAGAAAAAAGACAAAUCUGCCACAAAGCUAGAGAGCAUCUUCGGAUGCAGAGGCGGCAGCCUUCGGUGGCGCGAUAGCGCCAACGUUCUCAACUAUGACACGCAAUACGCGUGCUCCGUUGAAUGGAGUUUAUCAUG [C18G U45A A121U] it is -2.73; for GGAUCUUCUCGAUCUAACAAAAAAGACAAAUCUGCCACAAAGCUUGAGAACAUCUUCGGAUGCAGAGGCGGCAGCCUUCGGUGGCGCGAUAGCGCCAACGUUCUCAACUAUGACACGCAAAACGCGUGCUCCGUUGAAUGGCGUUUAUCAUG [G50A A142C] it is -3.12.
The figure for GGAUCUUCUCGAUCUAACAAAAAAGACAAAUCUGCCACAAAGCUUGAGAGCAUCUUCCGAUGCAGAGGCGGCAGCCUUCGGUGGCGCGAUAGCGCUAGCGUUCUCAACUAUGACACGCAAGACGCGUGCUCCGUUGAAUGGAGUUUAUCAUG [G58C C96U A98G A121G] is -0.614; for GGAUCUUCUCGAUCUAACAAAAAGGACAAAUCUACCACAAAGCUUGAGAGCAUCUUCCGAUGCAGAGGCGGCAGCCUUCGGUGGCGAGAUAGCGCCAAUGUUCUCAACUAUGACACGCAAAACGCGUGCUCCGUUGAAUGGAGUUUAUCAUG [A24G G34A G58C C87A C99U] it is at most -4.2; for GGAUCUUCUCGAUCUAACAAAAAAGACAAAUCUGCCACAAAGCUUGAGAGCAUCUUCGGAUGCAGAGGCGGCAGCCUUCGGUCGCGCGAUAGCGCCAACGUUCUCAACUAUGACACGCAAAACGCGUGCUCCGUUGAAUGGAGUUUAUCAUC [G83C G152C] it is -3.16.
Consider GGAUCUUCUCGAUCUAACAAAAAAGACAAAUCUGCCACAAAGCUUGAGAGCAUCUUCGGAUGCAGAGGCGGCAGCCUUCGGUGGCGCGAUAGCGCCAAAGGUCUCAACUAUGACACGCAAAACGCGUGCUCCGUUGAAUGGAGUUUAUCAUG [C99A U101G], for which the “polymerase ribozyme fitness (log ratio)” value is -3.16.
The figure for GGAUCUUCUCGAUCUAACAAAAAAGACAAAUCUGCCACAAAGCUUGAGAGCAUCUUCGGAUGCAGAGGCGGCAGCCUUCGGUGGCGCGAUAGCGCUAACGUUCUCAACUAUGACACGCAAAACGCGUGCUCCGUUGAAUGGAGUUUAUCAUG [C96U] is -0.258; for GGAUCUUCUCGUUCUAACAAAAAAGACAAAUCUGCCACAAAGCUUGAGAGCAUCUUCGGAUGCAGAGGCGGCAGCCUUCGGUGGUGCGAUAGCGCCGACGUUCUCAACUAUGACAUGCAAAACGCGUGCUCCGUUGAAUGGAGUUUAUCAUG [A12U C85U A97G C116U] it is -1.53.
